Source: US20190263899A1 (Novartis, published 2019)

B1: C-terminally 3×FLAG-1×HA-tagged mouse MINION (other)
chain: MPVPLLPMVLRSLLSRLLLPVARLARQHLLPLLRRLARRLSSQDMREALLSCLLFVLSQQQPPDSGEASRVDHSQRKERLGPQK
notes: Construct of the mouse MINION CDS (84 aa isoform) expressed from the pCIGAR retroviral vector; The AP-MS text only says 'FLAG-tagged Minion'; also called FLAG-tagged Minion; 3F1H-tagged mouse MINION; not shown: C-terminal 3×FLAG-1×HA tag
B2: Synaptopodin 2-like protein (protein, UniProt Q8BWB1 1-975, looked up)
Synaptopodin 2-like protein: MGAEEEVQVTLAGGAPWGFRLQGGTEQRKPLQIRRRSQAGRAGLRERDQLLAINGVSCTNFSHASAMTLIDASGRQLVLTVRRVTDEGSVRSPSPGELQVLSPLSPLSPEPPGAPVSQALQPTSLRSPPDSEAYYGETDSDVDGPATQEKPRRTRRRGPARPSLPGAPPDEVYLSDSPAEPAPVKTGSPSQGDSRVSSPSWEEGAALQPPPAEALLLPHGPLRPGPHLIPMVGPVPHPVAEDLTTTYTQKAKQAKLQRAESLQEKSVKEARTKCRTIASLLTAAPNPHSKGVLMFKKRRQRAKKYTLVSFGAAAGTGTEEEDGIPPTSESELDEETFSDARSLTNQSDWDSPYLDMELARAGLGTAESQNSGLGGQLSEVSGRGVQLFEQQRQRVASSSQELAQVGPAAMLNGQSLQSPPRAQSAPPEAAVLPLSPLSVPAVSPTPFFPDGGAPIPAPSIFNRSARPFTPGLQGQRSGTTSVIFRPLAPKKVNEGLGSTSPAPSPFAAPPQGPTPLPSFTTVVPSHTPVSGASSSTQRSSGPVTATSSLYIPAPSRPVTPGGAPEPPTPPSAAAMTSTASIFLSTPLRNSARPEAPGPAVPEPASVREQRISVPAARTGILQEARRRGTRKQMFRPGKEETKNSPNPELLSLVQNLDEKPRAGGAESGPEEDALSLGAEACNFMQPLGGRSYKTLPQVSPKTPPPMAPKTPPPTTPKTPPPVAPKPGSRGLLDGLVNGSTPMVGIPEPPRLQGRGGELFAKRQSRADRYVVEATSGSSLNPGLRPRSPSPTPSLPPSWKYSPNIRAPPPIAYNPLLSPFFPQAARTLPNKAQSQGPRVTPKQGIKALDFMRHQPYQLKTAMFCFDEGSSTPGPTSGPPKTARVQEIRRFSTPAPQPTAEPLAPTVLVPRAATTLDEPIWRAELASTPVPNPDHQESLRSFAAAPSSCGFQVARPRFSATRTGLQAHVWRPGAGHQ

Target: T1, Gapdh (mouse, UniProt P16858 1-333)
T1 construct: also called glyceraldehyde-3-phosphate dehydrogenase
T1 sequence (P16858 whole entry): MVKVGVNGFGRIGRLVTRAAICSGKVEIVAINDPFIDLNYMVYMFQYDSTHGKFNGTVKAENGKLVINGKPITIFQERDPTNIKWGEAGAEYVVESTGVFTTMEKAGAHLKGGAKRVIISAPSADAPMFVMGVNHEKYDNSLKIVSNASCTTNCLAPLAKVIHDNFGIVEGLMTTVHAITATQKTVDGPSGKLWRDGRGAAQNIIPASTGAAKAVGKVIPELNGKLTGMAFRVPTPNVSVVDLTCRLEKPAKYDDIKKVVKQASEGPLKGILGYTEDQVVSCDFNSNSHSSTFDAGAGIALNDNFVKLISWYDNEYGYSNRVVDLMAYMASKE
Assay: Western blot of the FLAG-tagged Minion affinity purification

B1: no binding.

Target: T2, C-terminally 3×FLAG-1×HA-tagged mouse MINION (Mus musculus) (UniProt Q2Q5T5)
T2 sequence: B1 chain
Assay: AP-MS, FLAG-tagged Minion bait, differentiating C2C12 myoblasts

Compared with “ATP synthase subunit beta, mitochondrial (from UniProt P56480 47-529) (enzyme)”, “ATPase family AAA domain-containing protein 1 (from UniProt Q9D5T0 1-361) (enzyme)” is lower in Sequence Coverage (%): 77% for the first, 30% for the second.

First: Acetolactate synthase-like protein (from UniProt Q8BU33 1-632) (enzyme)
Second: Adenylate kinase isoenzyme 4, mitochondrial (from UniProt Q9WUR9 1-223)
The Sequence Coverage (%) of the first is lower: 32% for the first, 52% for the second.

Compared with “Aldehyde dehydrogenase family 3 member B1 (from UniProt Q80VQ0 1-465) (enzyme)”, “Apolipoprotein O-like (from UniProt Q78IK4 28-265)” is higher in Sequence Coverage (%): 46% for the first, 49% for the second.

Compared with “B-cell receptor-associated protein 31 (from UniProt Q61335 2-245)”, “Calcium uniporter protein, mitochondrial (from UniProt Q3UMR5 50-350)” is higher in Sequence Coverage (%): 27% for the first, 38% for the second.

First: Calsequestrin-2 (from UniProt O09161 20-415)
Second: Cluster of Guanine nucleotide-binding protein G(s) subunit alpha isoforms short
The Sequence Coverage (%) of the first is lower: 24% for the first, 34% for the second.

First: Cluster of Myc box-dependent-interacting protein 1 (from UniProt O08539 2-588)
Second: Coproporphyrinogen-III oxidase, mitochondrial (from UniProt P36552 99-443) (enzyme)
The Sequence Coverage (%) of the first is lower: 42% for the first, 52% for the second.

Compared with “Cytochrome b-c1 complex subunit 1, mitochondrial (from UniProt Q9CZ13 35-480)”, “Cytoplasmic dynein 1 heavy chain 1 (from UniProt Q9JHU4 2-4644)” is higher in Sequence Coverage (%): 41% for the first, 46% for the second.

Compared with “Cytoskeleton-associated protein 5 (from UniProt A2AGT5 1-2032)”, “DnaJ homolog subfamily C member 16 (from UniProt Q80TN4 26-772)” is higher in Sequence Coverage (%): 8% for the first, 19% for the second.

Compared with Dysferlin (from UniProt Q9ESD7 1-2090), “Eukaryotic initiation factor 4A-II (from UniProt P10630 1-407)” is higher in Sequence Coverage (%): 13% for the first, 53% for the second.

First: Inositol 1,4,5-trisphosphate receptor type 3 (from UniProt P70227 1-2670)
Second: Isovaleryl-CoA dehydrogenase, mitochondrial (from UniProt Q9JHI5 31-424) (enzyme)
The Sequence Coverage (%) of the first is lower: 6% for the first, 49% for the second.

Going from “Junctional sarcoplasmic reticulum protein 1 (from UniProt Q3MI48 1-332)” to “NADH dehydrogenase [ubiquinone] 1 alpha subcomplex subunit 10, mitochondrial (from UniProt Q99LC3 36-355) (enzyme)”, the Sequence Coverage (%) falls from 53% to 24%.

Going from “NADH dehydrogenase [ubiquinone] flavoprotein 1, mitochondrial (from UniProt Q91YT0 21-464) (enzyme)” to “NADH-ubiquinone oxidoreductase 75 kDa subunit, mitochondrial (from UniProt Q91VD9 24-727) (enzyme)”, the Sequence Coverage (%) falls from 24% to 20%.

First: Nascent polypeptide-associated complex subunit alpha, muscle-specific form (from UniProt P70670 1-2187)
Second: Signal recognition particle 68 kDa protein (from UniProt Q8BMA6 1-625)
The Sequence Coverage (%) of the first is lower: 18% for the first, 25% for the second.

Compared with “Sorbin and SH3 domain-containing protein 2 (from UniProt Q3UTJ2 1-1180)”, Syntaxin-8 (from UniProt O88983 1-236) is higher in Sequence Coverage (%): 7% for the first, 19% for the second.

Going from T-complex protein 1 subunit alpha to “T-complex protein 1 subunit beta (from UniProt P80314 2-535)”, the Sequence Coverage (%) rises from 52% to 55%.

First: T-complex protein 1 subunit theta (from UniProt P42932 2-548)
Second: Trifunctional enzyme subunit alpha, mitochondrial (from UniProt Q8BMS1 37-763)
The Sequence Coverage (%) of the first is lower: 48% for the first, 66% for the second.

Going from “Trifunctional enzyme subunit beta, mitochondrial (from UniProt Q99JY0 35-475)” to “Tripartite motif-containing protein 72 (from UniProt Q1XH17 1-477)”, the Sequence Coverage (%) falls from 68% to 55%.

Compared with “Vacuolar protein sorting-associated protein 45 (from UniProt P97390 1-570)”, “Very long-chain specific acyl-CoA dehydrogenase, mitochondrial (from UniProt P50544 42-656) (enzyme)” is higher in Sequence Coverage (%): 15% for the first, 57% for the second.

Going from “Voltage-dependent anion-selective channel protein 1 (from UniProt Q60932 1-296)” to B2, the Sequence Coverage (%) falls from 15% to 8%.

Compared with “ATP synthase subunit beta, mitochondrial (from UniProt P56480 47-529) (enzyme)”, “ATPase family AAA domain-containing protein 1 (from UniProt Q9D5T0 1-361) (enzyme)” is lower in Unique Peptide: 26 for the first, 7 for the second.

Compared with “Acetolactate synthase-like protein (from UniProt Q8BU33 1-632) (enzyme)”, “Adenylate kinase isoenzyme 4, mitochondrial (from UniProt Q9WUR9 1-223)” is lower in Unique Peptide: 10 for the first, 6 for the second.

Compared with “Aldehyde dehydrogenase family 3 member B1 (from UniProt Q80VQ0 1-465) (enzyme)”, “Apolipoprotein O-like (from UniProt Q78IK4 28-265)” is lower in Unique Peptide: 15 for the first, 9 for the second.

First: B-cell receptor-associated protein 31 (from UniProt Q61335 2-245)
Second: Calcium uniporter protein, mitochondrial (from UniProt Q3UMR5 50-350)
The Unique Peptide of the first is lower: 7 for the first, 12 for the second.

“Calsequestrin-2 (from UniProt O09161 20-415)” and “Cluster of Guanine nucleotide-binding protein G(s) subunit alpha isoforms short” are the same in Unique Peptide: 9 for the first, 9 for the second.

Compared with “Cluster of Myc box-dependent-interacting protein 1 (from UniProt O08539 2-588)”, “Coproporphyrinogen-III oxidase, mitochondrial (from UniProt P36552 99-443) (enzyme)” is higher in Unique Peptide: 16 for the first, 19 for the second.

Going from “Cytochrome b-c1 complex subunit 1, mitochondrial (from UniProt Q9CZ13 35-480)” to “Cytoplasmic dynein 1 heavy chain 1 (from UniProt Q9JHU4 2-4644)”, the Unique Peptide rises from 13 to 157.

Compared with “Cytoskeleton-associated protein 5 (from UniProt A2AGT5 1-2032)”, “DnaJ homolog subfamily C member 16 (from UniProt Q80TN4 26-772)” is lower in Unique Peptide: 13 for the first, 9 for the second.

First: Dysferlin (from UniProt Q9ESD7 1-2090)
Second: Eukaryotic initiation factor 4A-II (from UniProt P10630 1-407)
The Unique Peptide of the first is higher: 17 for the first, 9 for the second.

Going from “Inositol 1,4,5-trisphosphate receptor type 3 (from UniProt P70227 1-2670)” to “Isovaleryl-CoA dehydrogenase, mitochondrial (from UniProt Q9JHI5 31-424) (enzyme)”, the Unique Peptide rises from 11 to 16.

First: Junctional sarcoplasmic reticulum protein 1 (from UniProt Q3MI48 1-332)
Second: NADH dehydrogenase [ubiquinone] 1 alpha subcomplex subunit 10, mitochondrial (from UniProt Q99LC3 36-355) (enzyme)
The Unique Peptide of the first is higher: 8 for the first, 7 for the second.

Compared with “NADH dehydrogenase [ubiquinone] flavoprotein 1, mitochondrial (from UniProt Q91YT0 21-464) (enzyme)”, “NADH-ubiquinone oxidoreductase 75 kDa subunit, mitochondrial (from UniProt Q91VD9 24-727) (enzyme)” is higher in Unique Peptide: 7 for the first, 9 for the second.

Going from “Nascent polypeptide-associated complex subunit alpha, muscle-specific form (from UniProt P70670 1-2187)” to “Signal recognition particle 68 kDa protein (from UniProt Q8BMA6 1-625)”, the Unique Peptide falls from 23 to 11.

Going from “Sorbin and SH3 domain-containing protein 2 (from UniProt Q3UTJ2 1-1180)” to Syntaxin-8 (from UniProt O88983 1-236), the Unique Peptide falls from 6 to 4.

T-complex protein 1 subunit alpha and “T-complex protein 1 subunit beta (from UniProt P80314 2-535)” are the same in Unique Peptide: 20 for the first, 20 for the second.

Going from “T-complex protein 1 subunit theta (from UniProt P42932 2-548)” to “Trifunctional enzyme subunit alpha, mitochondrial (from UniProt Q8BMS1 37-763)”, the Unique Peptide rises from 22 to 33.

Going from “Trifunctional enzyme subunit beta, mitochondrial (from UniProt Q99JY0 35-475)” to “Tripartite motif-containing protein 72 (from UniProt Q1XH17 1-477)”, the Unique Peptide falls from 22 to 16.

Going from “Vacuolar protein sorting-associated protein 45 (from UniProt P97390 1-570)” to “Very long-chain specific acyl-CoA dehydrogenase, mitochondrial (from UniProt P50544 42-656) (enzyme)”, the Unique Peptide rises from 7 to 26.

Going from “Voltage-dependent anion-selective channel protein 1 (from UniProt Q60932 1-296)” to B2, the Unique Peptide falls from 10 to 5.
